Several values for one entry are separate records, joined by “and”; a condition that tells them apart may be missing. Equal entries are not always repeated.
Tests used:
[1] = biological target: SARS-CoV-2 N439K variant (pseudovirus RVP-703) (SARS-CoV-2) (UniProt P0DTC2); experiment: cell-based or functional assay
[2] = biological target: SARS-CoV-2 South African Δ3 B.1.351 variant (pseudovirus RVP-724) (SARS-CoV-2) (UniProt P0DTC2); experiment: cell-based or functional assay

**Q.** Which results are given for REGN10987 (antibody)?
**A.** EC50 (pM) Neutralization, N439K [1]: 2260 pM and 2220 pM; pseudovirus neutralization, potency against REGN10933 [1]: 1000 fold; EC50 (pM) Neutralization, South Africa B.1.351 [2]: 2.48 pM and 2.37 pM
